Test results reported in article doi:10.1101/850305 (bioRxiv, 2019).

Target: the molecule itself
Assay: crystal structure

B1: E. coli LpxA UDP-N-acetylglucosamine acyltransferase (enzyme, UniProt P0A722 1-262, looked up)
chain: MIDKSAFVHPTAIVEEGASIGANAHIGPFCIVGPHVEIGEGTVLKSHVVVNGHTKIGRDNEIYQFASIGEVNQDLKYAGEPTRVEIGDRNRIRESVTIHRGTVQGGGLTKVGSDNLLMINAHIAHDCTVGNRCILANNATLAGHVSVDDFAIIGGMTAVHQFCIIGAHVMVGGCSGVAQDVPPYVIAQGNHATPFGVNIEGLKRRGFSREAITAIRNAYKLIYRSGKTLDEVKPEIAELAETYPEVKAFTDFFARSTRGLIR
B1 was tested, and the “stoichiometry N” value was 3.
